# Results reported in paper PMC12269843 (2025).
# Where no end group is shown, it is not given here. [ ]: non-standard residue; d: D form. Cit = NC(=O)NCCC[C@H](N)C(=O)O
# Target: HLA-DRB1*04:05 protein (human)
# Assay: FP
binder,measurement,value
"D[Cit]Y[Cit]LNYSLPTG [TNC1014,1016cit peptide]",IC50,4.81 µM
